Results taken from patent publication US20140045211A1 (University of California, published 2014).

Assays:
[1] = target: T1, CCR1 on HEK293 cells / HEK293 membranes stably expressing CCR1 (UniProt P32246 1-355, limits assumed); test: SPA competition assay, HEK293 cells/membranes expressing CCR1; competitor (tracer) CCL3-biotin with 125I-streptavidin
T1 construct: whole, on cells; also called chemokine receptor CCR1
T1 sequence (looked up): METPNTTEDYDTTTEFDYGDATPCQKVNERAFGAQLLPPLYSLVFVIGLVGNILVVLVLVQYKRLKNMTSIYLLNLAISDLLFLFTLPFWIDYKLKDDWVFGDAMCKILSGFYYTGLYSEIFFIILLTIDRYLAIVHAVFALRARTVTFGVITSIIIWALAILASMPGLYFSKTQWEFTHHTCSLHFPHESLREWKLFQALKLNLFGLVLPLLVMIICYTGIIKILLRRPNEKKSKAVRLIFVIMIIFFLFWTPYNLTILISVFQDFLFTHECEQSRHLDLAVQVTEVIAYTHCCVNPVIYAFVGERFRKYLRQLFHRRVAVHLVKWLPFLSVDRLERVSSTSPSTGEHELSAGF
Description: (§1) Scintillation proximity assay (SPA) binding assays (GE Healthcare, Piscataway, N.J.) were conducted essentially as previously described. HEK293 cells stably expressing CCR1 were used for these assays, and untransfected HEK293 cells were used as a control. Assays were undertaken in a 96-well plate format and each data point was assayed in triplicate on a Microbeta plate counter (Perkin Elmer) for 1 min per well. Each well contained 20,000 cells, 0.2 mg WGA-PVT-SPA beads, increasing concentrations of unlabeled competitor chemokine, and either […] ¹²⁵I-CCL3 or […] ¹²⁵I-Streptavidin +400 pM CCL3-Biotin, in a total volume of 100 μL. IC₅₀ values were obtained by nonlinear regression curve fitting using Prism software (GraphPad, La Jolla, Calif.).
(§2) In order to test the use of ¹²⁵I-streptavidin as a surrogate radiolabel in a chemokine SPA assay, competition assays using membranes containing the chemokine receptor CCR1 were performed. CCL3 was used for these assays because ¹²⁵I-CCL3 is commercially available, allowing for a direct comparison. After immobilization of membranes to SPA beads, either radiolabeled chemokine, or a combination of biotinylated chemokine and ¹²⁵I-labeled streptavidin was added. […] In contrast, no binding of CCL3 or competition with CCL14 was observed when CCR1-expressing membranes were replaced with untransfected HEK293 membranes. […]

[2] = target: T1, CCR1 on HEK293 cells / HEK293 membranes …; test: SPA competition assay, HEK293 cells/membranes expressing CCR1; competitor (tracer) 125I-CCL3
Description: as §1, §2

B1: CCL14 (unlabeled; functional form containing residues 9-74) (ligand)
chain: GPYHPSECCFTYTTYKIPRQRIMDYYETNSQCSKPGIVFITKRGHSVCTNPSDKWVQDYIKDMKEN
notes: Whether the entry is already trimmed to 9-74 is so no residue range is applied; Expressed as a His-ubiquitin fusion and cleaved with Usp2-cc to leave the native N-terminus; also called CCL14/HCC-1; HCC-1 (9-74)
With B1 the IC50 [1] was 0.9 nM and the IC50 [2] was 2.6 nM.
